± gives the standard deviation of the averaged measurements.
Test system: ATP
Experiment: switch fluorescence ratio, 500 uM ATP over buffer (Cy3 cluster intensity, sum of 5 cycles each) (fold (ratio)); higher = stronger signal-on switching upon ATP binding; sequences stand for … in TCGTCGGCAGCGTCAGATGTGTATAAGAGACAGTTTTTTTTTTTTTTTTTTTTTTTTT…TC
Conditions: aptamer strand: ATP DNA aptamer (quencher-CACCTGGGGGAGTATTGCGGAGGAAGG + anchor), 100 nM annealed; ATP concentration: 500 uM
Procedure, shortened: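 Clusters with intensities outside 100-1000 RFU were excluded. The remaining Cy3-labelled switching-strand clusters on a modified Illumina MiSeq flow-cell had been annealed to 100 nM quencher-labelled ATP aptamer and imaged in selection buffer, then after 15 min with 500 uM ATP at 22 °C, for five cycles separated by NaOH stripping and re-annealing. The fluorescence ratio, averaged per switch-domain sequence, is each cluster's summed target-cycle Cy3 intensity over its summed buffer-cycle Cy3 intensity.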
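Also: ATP exposure 15 min at 22 °C before imaging.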

Sequence	switch fluorescence ratio
CTCTTGGGCT	0.971 ± 0.089
GACGAAGCAT	5.33 ± 0.82
AAGGCGGGTT	0.9894 ± 0.0085
GGGCCTGGTG	1.42 ± 0.013
GGATTCTAAT	0.982 ± 0.01
TCTTTCAGTT	0.9816 ± 0.0082
TTTAGTAGGT	1.03 ± 0.023
TATTTGTGTT	0.997 ± 0.016
ACAACCGCTT	1.13 ± 0.017
CCATACAGTT	1.01 ± 0.021
TGCATTAGAG	1.02 ± 0.034
CGGGAGGACT	0.989 ± 0.057
TTTAGGAGTT	0.996 ± 0.019
CGTGCAAAAC	1.82 ± 0.88
CGTGTCCTCG	1.04 ± 0.088
GGGATCGAGG	1.01 ± 0.035
TTTATAGGGG	1.08 ± 0.14
TGGTTGGTCA	0.992 ± 0.01
TACCGGGGGT	1.63 ± 0.83
GGGGGGGTAT	1.01 ± 0.036
CATTGAAATT	0.968 ± 0.032
GATATTTAGT	0.995 ± 0.011
GTCTATAATT	0.9879 ± 0.0048
AAGTAGTCGT	1.01 ± 0.05
TGGGGTTGAG	0.984 ± 0.019

Sequence	switch fluorescence ratio
CATGGGGGTC	1 ± 0.036
AGGGGAGGAC	1.03 ± 0.02
ATTCCAAGGA	0.9853 ± 0.0019
GTTAGACTCA	1.01 ± 0.014
GATTGCACTT	1.02 ± 0.031
TTTGGGGATT	1.01 ± 0.036
GGATTGGTTG	0.999 ± 0.038
TTAATTTTTG	0.996 ± 0.029
CAAAATTGCA	1.02 ± 0.016
GTTGGGGGGA	1 ± 0.033
CGTATCGGGG	0.993 ± 0.054
TACAGGTTTC	1 ± 0.023
CGCAATTGAG	3.38 ± 0.17
GGGGGGGGCC	0.998 ± 0.053
GGGATAGAGC	0.965 ± 0.05
ATTTTATTAC	1.04 ± 0.028
GAGCACGGGT	1.04 ± 0.053
GGTTCAGGTA	0.9876 ± 0.0062
AGCTGGGGGG	0.982 ± 0.044
ACGGGTTGGC	1.064 ± 0.0044
AAGGGGTGAC	0.977 ± 0.041
TCCAGGAATT	1 ± 0.016
CTTTTAGTGG	0.9714 ± 0.0059
GTATGGATTC	0.987 ± 0.057
AACCGAAGAC	2.15 ± 0.075

Sequence	switch fluorescence ratio
GGACGGGGGA	1.02 ± 0.054
GGCGGTAATG	1.036 ± 0.005
TTCGTTAAGA	0.992 ± 0.0094
AAATGCGGTA	1 ± 0.056
GGAGATAGGG	1.03 ± 0.017
GGGATATGAT	0.9829 ± 0.0029
GAATTTAGTC	1.06 ± 0.077
TTCCGAAGGT	1.03 ± 0.03
TTCATAATGT	0.9632 ± 0.0096
CCATTGACGG	1.04 ± 0.02
GGTTGAAGTG	0.974 ± 0.012
TTAATAAAAT	0.966 ± 0.018
TAAGGTGGCC	1.01 ± 0.013
TGATAAGGGG	1.01 ± 0.039
TGTATGGTAG	0.975 ± 0.025
TTATTCGTCC	1.04 ± 0.058
TGCGTTCGTC	0.993 ± 0.015
TGATTATGGG	0.9781 ± 0.0063
ATATTGGTTT	0.997 ± 0.011
TAACCTTTAA	1.04 ± 0.02
GGGGGGTGTC	1.01 ± 0.038
TTGGGTATGG	0.997 ± 0.018
GTTGAATCAT	0.992 ± 0.017
TTTTTCAAGG	1.01 ± 0.013
CACGGATGGT	1.01 ± 0.069

Sequence	switch fluorescence ratio
CCAGGGGCGG	1.067 ± 0.002
GTTTTTG	0.984 ± 0.031
TCTTAGTAC	1.05 ± 0.013
GGAGTAACAT	1.04 ± 0.012
CTTTTAGAGA	1.02 ± 0.015
TTGGCTTAGA	1.001 ± 0.01
AGGCGGACTG	1.02 ± 0.13
ACATTCTATT	1.01 ± 0.021
GTATGGGATA	1.01 ± 0.035
CTCAGTATCG	1.012 ± 0.002
GGGGATCAGG	1.03 ± 0.075
TTCTGCTCGC	1.08 ± 0.058
CCAAAATTGA	1 ± 0.014
TCAATTTCAC	1.9 ± 1.3
CCGAGAATCG	1.02 ± 0.036
TTAGGGCTAG	0.9932 ± 0.0081
TTAGGGCTGC	0.98664 ± 0.00045
CCGGGAGTTA	1.15 ± 0.034
GCGACAGATG	1.01 ± 0.027
GTCGCGTAGG	1.03 ± 0.024
CGGGTTGCGG	0.9508 ± 0.009
GCATATTTTG	0.994 ± 0.029
AGGGGGCGGG	1.03 ± 0.035
TGGTAAAGGT	0.985 ± 0.014
CCTAAATACC	1.29 ± 0.25

Sequence	switch fluorescence ratio
TTTAATATGC	1.14 ± 0.23
TTTTTTGCG	1.01 ± 0.063
TGAAGTGTTT	1.01 ± 0.028
GTGGATATTG	1 ± 0.028
GTTGGTGAGT	0.989 ± 0.015
GTGATTTTTG	1.01 ± 0.063
TGGTGTATAG	1 ± 0.036
AGGATCATGG	1.01 ± 0.021
TCGCAGGGTG	1.43 ± 0.47
GAGTGCGGCT	1.07 ± 0.16
TTGCGGGTGG	1.01 ± 0.028
TTTCTCAAAA	1.03 ± 0.024
CAGAGGTTCC	1.05 ± 0.042
ATATTTTTTG	0.978 ± 0.024
CGTCCGGTG	1.78 ± 0.65
ATGCTGGTGG	0.978 ± 0.046
TGGGTAATGC	1.27 ± 0.13
TTTAAAAAGT	1 ± 0.023
CAGGTTGGGT	1.001 ± 0.0086
ACGAGAACGA	1.05 ± 0.021
TGGGTATAGG	0.975 ± 0.016
GGCTTCCCGG	1.16 ± 0.002
TTCATTCGTT	1.05 ± 0.046
GGTTTGTGTG	0.991 ± 0.018
GCTATAGGGA	0.957 ± 0.014

Sequence	switch fluorescence ratio
CATTACGGCG	0.995 ± 0.043
TGTGCGCGCT	0.995 ± 0.036
TATTACCTTA	1.03 ± 0.044
GGGGATTGGA	0.979 ± 0.031
CATGGCTTAT	1.01 ± 0.038
CGTTATCTAG	1.01 ± 0.03
GGGGTAACAG	1.01 ± 0.044
ACTAGAACAT	1.052 ± 0.0042
GATTAGATGT	0.9917 ± 0.0067
GGATGGGGGT	0.9972 ± 0.0097
GTTTATCGCT	1.023 ± 0.0077
GATTCGGCGT	0.9867 ± 0.0067
CTTTTGGATT	0.998 ± 0.022
CACCATTAGT	0.9802 ± 0.0079
CGGAGTTAAG	1.07 ± 0.044
CGTTTAGGCT	1.07 ± 0.14
AGGGCGGGTG	1.047 ± 0.0095
TAGTCGTTAG	1 ± 0.037
CGTAGCTTAG	1.25 ± 0.13
TGGAGGGTCG	1.021 ± 0.0023
ATTCACTTAG	1.09 ± 0.011
TTTTAAGGGG	1.02 ± 0.046
AATAGGACAA	0.982 ± 0.037
GTTGTTAACT	0.999 ± 0.048
CGCATCCTTG	1.03 ± 0.027

Sequence	switch fluorescence ratio
GCTGGCCGGT	0.989 ± 0.021
TAATTTGTTT	1.03 ± 0.025
GATTTCGATG	1.01 ± 0.013
GCTGAAATTT	1.01 ± 0.056
TTGTGGGGCC	1 ± 0.029
GTTTGCAACG	0.986 ± 0.021
TTAGGGCCAA	1 ± 0.0078
GGGGTGGCTA	1.02 ± 0.019
TATTTGTAAT	1.03 ± 0.02
CGGACTCATT	1.09 ± 0.15
TATTAAGAAA	0.962 ± 0.016
TTCGACTTCG	0.9903 ± 0.0063
CGGTTAGCGG	0.983 ± 0.044
GTTTTATTAT	1.017 ± 0.0017
CATTAGTTTC	1 ± 0.028
CGGTGATCGG	0.996 ± 0.013
GCAATTGCTG	0.9802 ± 0.0023
GACTGGTTTT	1.01 ± 0.033
CTAGTGAGTT	0.999 ± 0.023
GATCATGGGA	1.03 ± 0.093
AGCAAATTCG	1.04 ± 0.016
AACGCACGTT	1.28 ± 0.02
CGTTACGCGC	1 ± 0.023
TATGAGATAG	0.982 ± 0.021
AGAAGGTGCC	1.05 ± 0.049

Sequence	switch fluorescence ratio
AGTATGGCGG	0.975 ± 0.068
CATTATACAT	1.01 ± 0.023
CTGGGGATCG	1.02 ± 0.043
GGAAGTCGGT	0.968 ± 0.022
AATGGTGATG	0.9904 ± 0.0077
AATGTAAAAC	1.06 ± 0.066
GCCGCCTTTT	1.023 ± 0.0016
AGTTGCCTG	0.997 ± 0.08
TAAATATTTA	0.976 ± 0.05
TAGGTTTAAA	0.991 ± 0.039
GTTTGGGTTA	1.01 ± 0.016
CCTCGGGGGT	1.02 ± 0.04
ATCGTAATTT	0.971 ± 0.062
TCGATGGCAT	1.31 ± 0.065
GTGCTTGGAA	0.994 ± 0.033
AGGGTAACGA	0.999 ± 0.035
CGTAGAGCGA	1.03 ± 0.015
GACTAAAGTG	1.01 ± 0.044
ACTGGTTAGT	1 ± 0.045
CAGGAGGGGT	1.03 ± 0.025
GGGGGTTAGG	1.01 ± 0.037
ATAATTTATT	0.996 ± 0.012
TTTAGTAGTT	1.01 ± 0.017
AAGAGAGGGG	1.02 ± 0.029
AAATTAAAGG	1 ± 0.013
